Results taken from patent US20230137351A1.

Target: human beta-Klotho/FGFR1c complex on stable AM-1D cells (human) (UniProt Q86Z14)
UniProt Q86Z14, sequence (Q86Z14 whole entry, chain 1 of 2): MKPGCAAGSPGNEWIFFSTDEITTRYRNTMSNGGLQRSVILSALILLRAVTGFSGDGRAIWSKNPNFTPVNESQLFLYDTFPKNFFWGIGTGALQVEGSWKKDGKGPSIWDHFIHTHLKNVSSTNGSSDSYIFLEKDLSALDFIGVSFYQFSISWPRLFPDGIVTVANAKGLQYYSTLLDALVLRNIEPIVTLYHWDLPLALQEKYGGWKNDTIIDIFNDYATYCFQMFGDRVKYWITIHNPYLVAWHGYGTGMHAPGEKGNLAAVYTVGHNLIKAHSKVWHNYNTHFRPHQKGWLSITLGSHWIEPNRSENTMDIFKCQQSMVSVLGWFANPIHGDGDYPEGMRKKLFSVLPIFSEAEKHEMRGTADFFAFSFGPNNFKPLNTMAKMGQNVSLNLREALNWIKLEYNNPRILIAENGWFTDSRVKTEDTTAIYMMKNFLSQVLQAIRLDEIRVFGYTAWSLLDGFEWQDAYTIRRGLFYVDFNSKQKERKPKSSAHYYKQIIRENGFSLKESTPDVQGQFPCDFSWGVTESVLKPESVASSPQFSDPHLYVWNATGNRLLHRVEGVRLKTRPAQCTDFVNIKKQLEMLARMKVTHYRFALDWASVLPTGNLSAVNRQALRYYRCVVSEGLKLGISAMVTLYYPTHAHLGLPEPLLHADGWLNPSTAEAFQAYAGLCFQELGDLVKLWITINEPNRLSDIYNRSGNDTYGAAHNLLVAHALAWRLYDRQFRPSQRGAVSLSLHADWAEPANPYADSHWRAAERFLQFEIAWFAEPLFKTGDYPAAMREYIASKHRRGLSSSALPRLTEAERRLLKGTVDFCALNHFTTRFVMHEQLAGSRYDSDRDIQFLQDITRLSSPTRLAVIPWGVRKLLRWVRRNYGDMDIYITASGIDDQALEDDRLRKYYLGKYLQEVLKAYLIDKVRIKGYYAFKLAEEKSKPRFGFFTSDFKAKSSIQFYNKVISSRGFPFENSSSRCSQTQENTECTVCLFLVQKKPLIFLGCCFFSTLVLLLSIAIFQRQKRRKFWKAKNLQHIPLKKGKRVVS
UniProt Q86Z14, sequence (P11362 22-822, chain 2 of 2, further chain): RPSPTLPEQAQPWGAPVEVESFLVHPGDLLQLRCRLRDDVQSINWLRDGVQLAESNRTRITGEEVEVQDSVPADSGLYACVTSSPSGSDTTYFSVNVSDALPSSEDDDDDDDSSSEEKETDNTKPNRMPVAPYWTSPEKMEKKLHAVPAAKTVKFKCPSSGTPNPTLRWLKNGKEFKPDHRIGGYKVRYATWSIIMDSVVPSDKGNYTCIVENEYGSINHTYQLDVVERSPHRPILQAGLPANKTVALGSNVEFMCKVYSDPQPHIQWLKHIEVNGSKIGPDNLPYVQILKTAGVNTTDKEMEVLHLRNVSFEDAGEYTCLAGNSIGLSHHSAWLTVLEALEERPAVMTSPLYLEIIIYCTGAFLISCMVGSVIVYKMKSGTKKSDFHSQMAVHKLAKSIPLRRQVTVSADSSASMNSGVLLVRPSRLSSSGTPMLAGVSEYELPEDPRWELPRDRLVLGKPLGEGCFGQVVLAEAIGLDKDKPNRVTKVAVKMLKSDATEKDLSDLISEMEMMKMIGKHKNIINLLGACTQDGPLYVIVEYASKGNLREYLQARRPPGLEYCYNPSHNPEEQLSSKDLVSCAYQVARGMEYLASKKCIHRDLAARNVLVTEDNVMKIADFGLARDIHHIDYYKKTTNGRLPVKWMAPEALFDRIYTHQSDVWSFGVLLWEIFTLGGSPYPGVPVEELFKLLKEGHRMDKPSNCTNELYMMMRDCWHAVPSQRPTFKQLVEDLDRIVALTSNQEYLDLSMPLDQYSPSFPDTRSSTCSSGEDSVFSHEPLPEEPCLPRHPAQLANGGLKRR

Q: “FGF21 (from UniProt Q9NSA1 29-209) (ligand)” was tested. Which adipocyte pERK assay: EC50 (read off the curve) [lower row] did it give?
A: The adipocyte pERK assay: EC50 (read off the curve) [lower row] was 0.7 nM.
